Data: IntAct's records for PubMed 31515488

B1: Actin nucleation-promoting factor WAS (Homo sapiens), P42768 (parent)
chain: MSGGPMGGRPGGRGAPAVQQNIPSTLLQDHENQRLFEMLGRKCLTLATAVVQLYLALPPGAEHWTKEHCGAVCFVKDNPQKSYFIRLYGLQAGRLLWEQELYSQLVYSTPTPFFHTFAGDDCQAGLNFADEDEAQAFRALVQEKIQKRNQRQSGDRRQLPPPPTPANEERRGGLPPLPLHPGGDQGGPPVGPLSLGLATVDIQNPDITSSRYRGLPAPGPSPADKKRSGKKKISKADIGAPSGFKHVSHVGWDPQNGFDVNNLDPDLRSLFSRAGISEAQLTDAETSKLIYDFIEDQGGLEAVRQEMRRQEPLPPPPPPSRGGNQLPRPPIVGGNKGRSGPLPPVPLGIAPPPPTPRGPPPPGRGGPPPPPPPATGRSGPLPPPPPGAGGPPMPPPPPPPPPPPSSGNGPAPPPLPPALVPAGGLAPGGGRGALLDQIRQGIQLNKTPGAPESSALQPPPQSSEGLVGALMHVMQKRSRAIHSSDEGEDQAGDEDEDDEWDD
B2: Baculoviral IAP repeat-containing protein 7 (Homo sapiens), Q96CA5 (parent)
chain: MGPKDSAKCLHRGPQPSHWAAGDGPTQERCGPRSLGSPVLGLDTCRAWDHVDGQILGQLRPLTEEEEEEGAGATLSRGPAFPGMGSEELRLASFYDWPLTAEVPPELLAAAGFFHTGHQDKVRCFFCYGGLQSWKRGDDPWTEHAKWFPSCQFLLRSKGRDFVHSVQETHSQLLGSWDPWEEPEDAAPVAPSVPASGYPELPTPRREVQSESAQEPGGVSPAEAQRAWWVLEPPGARDVEAQLRRLQEERTCKVCLDRAVSIVFVPCGHLVCAECAPGLQLCPICRAPVRSRVRTFLS
partner: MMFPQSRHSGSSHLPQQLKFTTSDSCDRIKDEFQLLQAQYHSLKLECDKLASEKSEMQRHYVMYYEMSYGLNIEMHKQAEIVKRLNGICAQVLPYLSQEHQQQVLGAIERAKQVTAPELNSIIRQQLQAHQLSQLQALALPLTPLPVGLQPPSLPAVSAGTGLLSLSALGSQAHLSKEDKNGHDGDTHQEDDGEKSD
B3: Aflatoxin B1 aldehyde reductase member 2 (Homo sapiens), O43488 (parent)
chain: MLSAASRVVSRAAVHCALRSPPPEARALAMSRPPPPRVASVLGTMEMGRRMDAPASAAAVRAFLERGHTELDTAFMYSDGQSETILGGLGLGLGGGDCRVKIATKANPWDGKSLKPDSVRSQLETSLKRLQCPQVDLFYLHAPDHGTPVEETLHACQRLHQEGKFVELGLSNYASWEVAEICTLCKSNGWILPTVYQGMYNATTRQVETELFPCLRHFGLRFYAYNPLAGGLLTGKYKYEDKDGKQPVGRFFGNSWAETYRNRFWKEHHFEAIALVEKALQAAYGASAPSVTSAALRWMYHHSQLQGAHGDAVILGMSSLEQLEQNLAATEEGPLEPAVVDAFNQAWHLVAHECPNYFR
partner: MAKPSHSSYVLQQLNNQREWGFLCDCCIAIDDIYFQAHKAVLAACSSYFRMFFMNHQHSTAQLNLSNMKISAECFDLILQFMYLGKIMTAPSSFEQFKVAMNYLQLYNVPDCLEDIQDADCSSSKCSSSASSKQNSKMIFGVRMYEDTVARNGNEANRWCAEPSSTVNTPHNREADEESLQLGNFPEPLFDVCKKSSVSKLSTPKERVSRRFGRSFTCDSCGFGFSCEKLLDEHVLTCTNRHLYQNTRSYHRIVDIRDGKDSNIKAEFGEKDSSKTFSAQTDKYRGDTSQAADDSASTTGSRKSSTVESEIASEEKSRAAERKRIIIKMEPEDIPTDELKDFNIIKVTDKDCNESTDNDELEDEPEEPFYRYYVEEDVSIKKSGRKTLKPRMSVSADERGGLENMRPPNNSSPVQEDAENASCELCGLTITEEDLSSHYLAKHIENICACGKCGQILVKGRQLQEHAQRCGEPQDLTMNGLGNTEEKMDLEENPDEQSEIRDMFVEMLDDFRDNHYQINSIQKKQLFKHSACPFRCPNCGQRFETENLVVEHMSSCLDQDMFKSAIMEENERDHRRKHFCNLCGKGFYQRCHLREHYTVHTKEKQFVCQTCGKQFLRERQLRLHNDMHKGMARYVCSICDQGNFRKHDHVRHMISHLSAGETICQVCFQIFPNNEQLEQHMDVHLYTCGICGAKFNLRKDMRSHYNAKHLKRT
B4: Coiled-coil domain-containing protein 172 (Homo sapiens), P0C7W6 (parent)
chain: MSLESLFQHIIFTEHQAEESRRLMREVRSEITRCREKIKKATEELNEEKIKLESKVQQFFEKSFFLQLLKAHENALEKQYSEITNHRNMLLQTFEAIKKQMIEEEDKFIKEITDFNNDYEITKKRELLMKENVKIEISDLENQANMLKSEMKSMEHDSSQLNELQKQKSELIQELFTLQRKLKVFEDEENESICTTKYLEAEKIKISEKPQNDTECLRLKKELELYKEDDMESVYEALQTEIEFLELTLAQKDLQESK
B5: Tubby-related protein 3 (Homo sapiens), O75386 (parent)
chain: MEASRCRLSPSGDSVFHEEMMKMRQAKLDYQRLLLEKRQRKKRLEPFMVQPNPEARLRRAKPRASDEQTPLVNCHTPHSNVILHGIDGPAAVLKPDEVHAPSVSSSVVEEDAENTVDTASKPGLQERLQKHDISESVNFDEETDGISQSACLERPNSASSQNSTDTGTSGSATAAQPADNLLGDIDDLEDFVYSPAPQGVTVRCRIIRDKRGMDRGLFPTYYMYLEKEENQKIFLLAARKRKKSKTANYLISIDPVDLSREGESYVGKLRSNLMGTKFTVYDRGICPMKGRGLVGAAHTRQELAAISYETNVLGFKGPRKMSVIIPGMTLNHKQIPYQPQNNHDSLLSRWQNRTMENLVELHNKAPVWNSDTQSYVLNFRGRVTQASVKNFQIVHKNDPDYIVMQFGRVADDVFTLDYNYPLCAVQAFGIGLSSFDSKLACE
B6: Isoform 1 of Mothers against decapentaplegic homolog 3 (Homo sapiens), P84022-1 (parent)
chain: MSSILPFTPPIVKRLLGWKKGEQNGQEEKWCEKAVKSLVKKLKKTGQLDELEKAITTQNVNTKCITIPRSLDGRLQVSHRKGLPHVIYCRLWRWPDLHSHHELRAMELCEFAFNMKKDEVCVNPYHYQRVETPVLPPVLVPRHTEIPAEFPPLDDYSHSIPENTNFPAGIEPQSNIPETPPPGYLSEDGETSDHQMNHSMDAGSPNLSPNPMSPAHNNLDLQPVTYCEPAFWCSISYYELNQRVGETFHASQPSMTVDGFTDPSNSERFCLGLLSNVNRNAAVELTRRHIGRGVRLYYIGGEVFAECLSDSAIFVQSPNCNQRYGWHPATVCKIPPGCNLKIFNNQEFAALLAQSVNQGFEAVYQLTRMCTIRMSFVKGWGAEYRRQTVTSTPCWIELHLNGPLQWLDKVLTQMGSPSIRCSSVS
partner: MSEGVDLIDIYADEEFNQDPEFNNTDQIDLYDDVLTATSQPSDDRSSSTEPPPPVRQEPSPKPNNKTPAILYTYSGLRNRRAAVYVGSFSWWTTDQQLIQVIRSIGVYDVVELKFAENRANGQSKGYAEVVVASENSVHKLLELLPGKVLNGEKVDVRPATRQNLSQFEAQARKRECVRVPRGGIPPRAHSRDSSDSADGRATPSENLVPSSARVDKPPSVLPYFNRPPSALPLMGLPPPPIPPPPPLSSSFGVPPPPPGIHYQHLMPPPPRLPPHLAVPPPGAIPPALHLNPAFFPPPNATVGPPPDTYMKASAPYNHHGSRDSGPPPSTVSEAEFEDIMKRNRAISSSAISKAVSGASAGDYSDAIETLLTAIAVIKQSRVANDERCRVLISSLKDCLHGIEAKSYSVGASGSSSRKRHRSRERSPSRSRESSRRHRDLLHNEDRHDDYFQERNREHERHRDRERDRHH
B7: Protein DDI1 homolog 1 (Homo sapiens), Q8WTU0 (parent)
chain: MLITVYCVRRDLSEVTFSLQVSPDFELRNFKVLCEAESRVPVEEIQIIHMERLLIEDHCSLGSYGLKDGDIVVLLQKDNVGPRAPGRAPNQPRVDFSGIAVPGTSSSRPQHPGQQQQRTPAAQRSQGLASGEKVAGLQGLGSPALIRSMLLSNPHDLSLLKERNPPLAEALLSGSLETFSQVLMEQQREKALREQERLRLYTADPLDREAQAKIEEEIRQQNIEENMNIAIEEAPESFGQVTMLYINCKVNGHPLKAFVDSGAQMTIMSQACAERCNIMRLVDRRWAGVAKGVGTQRIIGRVHLAQIQIEGDFLQCSFSILEDQPMDMLLGLDMLRRHQCSIDLKKNVLVIGTTGTQTYFLPEGELPLCSRMVSGQDESSDKEITHSVMDSGRKEH
partner: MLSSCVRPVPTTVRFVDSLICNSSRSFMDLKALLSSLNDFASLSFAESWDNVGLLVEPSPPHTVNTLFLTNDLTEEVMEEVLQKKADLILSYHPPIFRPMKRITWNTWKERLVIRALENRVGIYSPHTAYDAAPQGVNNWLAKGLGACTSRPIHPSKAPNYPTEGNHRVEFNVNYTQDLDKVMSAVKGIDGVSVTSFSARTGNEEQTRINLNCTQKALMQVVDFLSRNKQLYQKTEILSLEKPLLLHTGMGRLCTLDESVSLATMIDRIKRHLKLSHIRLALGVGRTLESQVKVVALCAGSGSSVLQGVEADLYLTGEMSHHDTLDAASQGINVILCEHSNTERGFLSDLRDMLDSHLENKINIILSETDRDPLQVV

Variants of: B1
Conditions: with cdc42_human CDC42, P60953
Chain of cdc42_human CDC42, P60953 (P60953 whole entry, looked up): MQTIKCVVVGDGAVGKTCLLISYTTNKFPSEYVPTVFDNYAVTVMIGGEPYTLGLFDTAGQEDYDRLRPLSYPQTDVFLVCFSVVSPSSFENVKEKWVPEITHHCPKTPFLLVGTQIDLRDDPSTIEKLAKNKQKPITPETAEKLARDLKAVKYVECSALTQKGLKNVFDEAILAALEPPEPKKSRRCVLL

Variant	effect of a mutation on the interaction
E131K	with no effect
I294T	disrupting interaction strength

Variants of: B2
Conditions: with tle5_human TLE5, Q08117

Variant	effect of a mutation on the interaction
H164R	with no effect

Variants of: B2
Conditions: with tle5_human TLE5, Q08117
Remark: another data set of the same source

Variant	effect of a mutation on the interaction
H164R	with no effect

Variants of: B3
Conditions: with zbtb1_human ZBTB1, Q9Y2K1

Variant	effect of a mutation on the interaction
A142T	disrupting interaction strength

Variants of: B4
Conditions: with fa13c_human FAM13C

Variant	effect of a mutation on the interaction
F60L	disrupting interaction strength
I10V	with no effect

Variants of: B4
Conditions: with dctn2_human DCTN2, Q13561
Chain of dctn2_human DCTN2, Q13561 (Q13561 whole entry): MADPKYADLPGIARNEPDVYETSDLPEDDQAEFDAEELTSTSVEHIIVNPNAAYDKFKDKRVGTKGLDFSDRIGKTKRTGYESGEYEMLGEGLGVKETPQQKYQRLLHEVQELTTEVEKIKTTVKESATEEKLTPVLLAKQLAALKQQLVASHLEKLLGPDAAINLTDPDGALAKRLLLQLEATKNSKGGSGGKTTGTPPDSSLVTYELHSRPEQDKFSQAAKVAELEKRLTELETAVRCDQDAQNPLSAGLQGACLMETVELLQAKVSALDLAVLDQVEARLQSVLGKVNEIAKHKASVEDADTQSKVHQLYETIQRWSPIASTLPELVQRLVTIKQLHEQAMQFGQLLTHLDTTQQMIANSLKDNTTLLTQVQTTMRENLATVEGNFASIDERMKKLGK

Variant	effect of a mutation on the interaction
F60L	disrupting interaction strength
I10V	with no effect

Variants of: B4
Conditions: with smce1_human SMARCE1, Q969G3
Chain of smce1_human SMARCE1, Q969G3 (Q969G3 whole entry): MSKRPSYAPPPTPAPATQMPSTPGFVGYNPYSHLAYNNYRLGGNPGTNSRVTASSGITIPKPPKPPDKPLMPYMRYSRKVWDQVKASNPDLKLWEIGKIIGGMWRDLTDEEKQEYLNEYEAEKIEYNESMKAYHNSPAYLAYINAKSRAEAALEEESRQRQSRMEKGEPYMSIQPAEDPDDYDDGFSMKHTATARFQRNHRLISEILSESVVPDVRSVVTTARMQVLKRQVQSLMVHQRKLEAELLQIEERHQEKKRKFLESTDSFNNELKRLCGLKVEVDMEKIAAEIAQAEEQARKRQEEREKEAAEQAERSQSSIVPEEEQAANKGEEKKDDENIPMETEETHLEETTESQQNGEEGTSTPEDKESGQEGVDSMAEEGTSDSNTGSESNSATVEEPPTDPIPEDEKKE

Variant	effect of a mutation on the interaction
F60L	disrupting interaction strength
I10V	with no effect

Variants of: B4
Conditions: with mesh1_human HDDC3, Q8N4P3
Chain of mesh1_human HDDC3, Q8N4P3 (Q8N4P3 whole entry): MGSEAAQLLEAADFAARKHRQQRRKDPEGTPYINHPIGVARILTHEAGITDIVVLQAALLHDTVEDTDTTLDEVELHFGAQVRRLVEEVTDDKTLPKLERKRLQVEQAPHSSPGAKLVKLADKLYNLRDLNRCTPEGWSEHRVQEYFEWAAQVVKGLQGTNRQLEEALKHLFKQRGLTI

Variant	effect of a mutation on the interaction
N145K	with no effect
I10V	with no effect

Variants of: B5
Conditions: with maga6_human MAGEA6, P43360
Chain of maga6_human MAGEA6, P43360 (P43360 whole entry): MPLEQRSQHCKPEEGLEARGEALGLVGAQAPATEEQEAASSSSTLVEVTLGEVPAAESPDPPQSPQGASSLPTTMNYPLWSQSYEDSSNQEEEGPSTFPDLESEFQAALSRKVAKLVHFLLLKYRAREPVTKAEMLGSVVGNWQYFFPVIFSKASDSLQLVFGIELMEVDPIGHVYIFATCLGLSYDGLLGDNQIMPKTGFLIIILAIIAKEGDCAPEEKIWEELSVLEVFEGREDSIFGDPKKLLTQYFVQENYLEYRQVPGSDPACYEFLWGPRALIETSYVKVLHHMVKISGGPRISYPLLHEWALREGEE

Variant	effect of a mutation on the interaction
G267S	disrupting interaction strength
A296E	with no effect

Variants of: B5
Conditions: with anr54_human ANKRD54, Q6NXT1
Chain of anr54_human ANKRD54, Q6NXT1 (Q6NXT1 whole entry): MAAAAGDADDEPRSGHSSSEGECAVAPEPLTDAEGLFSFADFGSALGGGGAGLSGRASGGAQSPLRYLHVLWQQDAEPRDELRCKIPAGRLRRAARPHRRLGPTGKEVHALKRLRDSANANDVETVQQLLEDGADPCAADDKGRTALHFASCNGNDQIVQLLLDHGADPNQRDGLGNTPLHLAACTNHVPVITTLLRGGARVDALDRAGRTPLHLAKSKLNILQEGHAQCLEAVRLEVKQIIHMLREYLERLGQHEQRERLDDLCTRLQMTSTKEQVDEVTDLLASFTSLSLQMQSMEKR

Variant	effect of a mutation on the interaction
G267S	with no effect

Variants of: B6
Conditions: with cpsf7_human CPSF7, Q8N684

Variant	effect of a mutation on the interaction
P393L	disrupting interaction strength

Variants of: B7
Conditions: with nif3l_human NIF3L1, Q9GZT8

Variant	effect of a mutation on the interaction
S63A	with no effect
R208G	with no effect
R87C	with no effect
N228T	with no effect
G136S	with no effect
D323N	with no effect
